Experimental data taken from patent US20160096892A1 (Novartis, published 2016).

Target: T1, recombinant Fc-tagged hsCD33 (human, UniProt P20138 18-259)
T1 construct: Soluble staining reagent, detected with a PE-conjugated Fc-specific secondary antibody; not shown: Fc tag
Assay: flow cytometry; JNL cells displaying the scFv CAR, recombinant Fc-tagged hsCD33, PE anti-Fc secondary
Protocol: FIG. 32 is an image depicting cross-reactivity of T cells expressing scFvs targeting CD33 to cynomolgus CD33 (cyCD33) by flow cytometry. JNL cells transduced with a lentiviral vector expressing scFv's raised against hsCD33 were incubated with either recombinant Fc-tagged hsCD33 (dotted line) or cyCD33 (solid line) followed by incubation with an Fc-specific secondary antibody conjugated to phycoerythrin.
Finally, scFv cross-reactivity to cynomolgus CD33 (cyCD33) was assessed by flow cytometry as depicted in FIG. 32. JNL cells transduced with a lentiviral vector expressing scFv's raised against hsCD33 were incubated with either recombinant Fc-tagged hsCD33 (red line) or cyCD33 (blue line) followed by incubation with an Fc-specific secondary antibody conjugated to phycoerythrin. While scFv clones CD33-1, -2, -3, -4, -5, -6, -7, -9, and CD33-UPenn were capable of binding hsCD33, we note that only scFv clone CD33-5 appeared to be cross-reactive to both hsCD33 and cyCD33 (FIG. 32).

T1 sequence (P20138 18-259 limits assumed): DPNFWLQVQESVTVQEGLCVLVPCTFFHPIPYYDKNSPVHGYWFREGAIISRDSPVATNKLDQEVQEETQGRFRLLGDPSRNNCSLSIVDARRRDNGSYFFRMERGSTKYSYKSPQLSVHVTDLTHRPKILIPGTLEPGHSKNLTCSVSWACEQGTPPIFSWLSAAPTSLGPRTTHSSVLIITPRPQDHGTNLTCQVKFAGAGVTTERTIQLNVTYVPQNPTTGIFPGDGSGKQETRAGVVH

- binding result: binds
B1: CD33-UPenn (scFv based on the sequence of Mylotarg; humanized My96) (scFv, not shown: small tags and cut ends)
chain: EIVLTQSPGSLAVSPGERVTMSCKSSQSVFFSSSQKNYLAWYQQIPGQSPRLLIYWASTRESGVPDRFTGSGSGTDFTLTISSVQPEDLAIYYCHQYLSSRTFGQGTKLEIKRGGGGSGGGGSSGGGSQVQLQQPGAEVVKPGASVKMSCKASGYTFTSYYIHWIKQTPGQGLEWVGVIYPGNDDISYNQKFQGKATLTADKSSTTAYMQLSSLTSEDSAVYYCAREVRLRYFDVWGQGTTVTVSS
notes: also called CAR33-UPenn
